Consider two molecules from PMC7533053, “Improving transgene expression and CRISPR‐Cas9 efficiency with molecular engineering‐based molecules”.

In data set [1] the target is T1, β-catenin (UniProt P35222 1-781). Kind of data set: SPR; KD shown only in figure; SPR Biacore X100, CM5 chip, protein immobilized by amine coupling; RNA injected 1.5 min at 5 μL/min, six concentrations 4.1 nM-1 μM; running buffer, pH and temperature not stated. A general note: SPR reads the build-up and loss of mass on a sensor chip optically.
For data set [2], the target named is T1, β-catenin. Kind of data set: SPR; stronger than ANAM-β; KD shown only in figure; SPR Biacore X100, CM5 chip, protein immobilized by amine coupling; RNA injected 1.5 min at 5 μL/min, six concentrations 4.1 nM-1 μM; running buffer, pH and temperature not stated.

T1 sequence (P35222 whole entry): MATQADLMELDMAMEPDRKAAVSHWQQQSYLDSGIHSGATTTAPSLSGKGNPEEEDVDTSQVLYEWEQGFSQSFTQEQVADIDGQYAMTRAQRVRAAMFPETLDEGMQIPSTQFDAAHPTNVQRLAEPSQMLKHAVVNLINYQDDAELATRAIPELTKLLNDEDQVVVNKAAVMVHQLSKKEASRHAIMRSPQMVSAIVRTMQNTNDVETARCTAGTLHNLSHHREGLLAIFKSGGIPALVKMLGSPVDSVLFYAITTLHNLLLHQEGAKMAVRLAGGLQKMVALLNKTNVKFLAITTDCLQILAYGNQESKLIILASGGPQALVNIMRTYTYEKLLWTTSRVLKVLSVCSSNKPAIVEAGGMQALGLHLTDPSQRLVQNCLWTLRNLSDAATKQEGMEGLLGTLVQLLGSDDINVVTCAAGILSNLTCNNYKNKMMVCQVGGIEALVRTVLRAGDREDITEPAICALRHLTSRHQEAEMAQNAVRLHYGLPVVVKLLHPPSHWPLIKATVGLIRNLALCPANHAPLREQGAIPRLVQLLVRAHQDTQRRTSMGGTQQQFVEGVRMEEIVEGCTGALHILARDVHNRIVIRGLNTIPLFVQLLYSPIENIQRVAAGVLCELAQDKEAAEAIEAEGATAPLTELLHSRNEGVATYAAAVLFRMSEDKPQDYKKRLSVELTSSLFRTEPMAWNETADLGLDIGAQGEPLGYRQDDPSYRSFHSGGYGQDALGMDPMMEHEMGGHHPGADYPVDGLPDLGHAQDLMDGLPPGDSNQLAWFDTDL

Consider AGGCCGAUCUAUGGACGCUAUAGGCACACCGGAUACUUUAACGAUUGGCU (structured_RNA) [ANAM-β], for which the binding result in the data set with β-catenin [1] is reported as “binds”.

B1: ANAM-2Sβ (structured_RNA)
RNA: GGGAGCGGCCGAUCUAUGGACGCUAUAGGCACACCGGAUACUUUAACGAUUGGCCGCCUGCUGCGGGCCGAUCUAUGGACGCUAUAGGCACACCGGAUACUUUAACGAUUGGCCCGCAGCAGUUCCC
For B1, the binding result with β-catenin [2] is “binds”.
